Data on 9 molecules can be found in patent publication US20190224274, “MIF INHIBITORS AND METHODS OF USE THEREOF” (The Johns Hopkins University, published 2019).

Data set [1] concerns the target T1, MIF (Homo sapiens, UniProt P14174 P14174:1-115).
T1 sequence: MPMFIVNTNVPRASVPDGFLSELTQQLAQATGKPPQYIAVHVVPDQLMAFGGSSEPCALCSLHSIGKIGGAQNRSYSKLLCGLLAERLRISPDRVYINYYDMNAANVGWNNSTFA
The data set can be described thus: EMSA; 10 mM Mg2+. The note with it: tags: GST tag removed (pGex-6P-1); chain copies: 3 (inferred, trimer by FPLC); label: 5' biotin; stem loop, 1 unpaired 3' base. (Mobility shift assays separate free from complexed probe on a gel.)

In data set [2] the target is T1, MIF. The data set can be described thus: EMSA; 10 mM Mg2+. The note with it: tags: GST tag removed (pGex-6P-1); chain copies: 3 (inferred, trimer by FPLC); label: 5' biotin. The procedure: In parallel with the ssDNA studies, MIF was tested to see if it binds to dsDNA using PS³⁰, poly A, PS³⁰ sequence-related substrates (5′bPS³⁰, 5′bSL, 5′bLF, 5′bRF, 5′bPA³⁰, and 5′bPASE) as well as non-related sequences (PCS and 5′bL3) (FIG. 3B and FIG. 19).
(§1) EMSA assay was performed using LightShift Chemiluminescent EMSA kit (Thermo Scientific) following the manufactures instruction. Briefly, purified MIF protein (2 μM) was incubated with biotin-labeled DNA substrates (10 nM) in the binding buffer containing 10 mM MgCl₂ for […] on ice. Then samples were separated on 6% retardation polyacrylamide followed by electrophoretic transfer to nylon membrane.

Data set [3] has as its target T2, MIF E22Q (Homo sapiens, UniProt P14174 P14174:1-115, E22Q).
T2 sequence: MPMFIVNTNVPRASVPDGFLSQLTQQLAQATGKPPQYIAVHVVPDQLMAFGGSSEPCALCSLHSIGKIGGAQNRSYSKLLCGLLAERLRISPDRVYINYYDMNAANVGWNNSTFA
The data set can be described thus: EMSA; 10 mM Mg2+. Conditions: tags: GST tag removed; chain copies: 3 (inferred); label: 5' biotin; stem loop with unpaired 5' and 3' bases. The procedure: (§2) Both single stranded and double stranded forms of two classes of MIF DNA binding motifs were examined for MIF binding and cleavage specificity. The ssPS³⁰ sequence was synthesized with a 5′ biotin label and subjected to an electrophoretic mobility shift assay (EMSA) (FIG. 18C).
as §1

Data set [4] addresses T3, MIF P16A (Homo sapiens, UniProt P14174 P14174:1-115, P16A).
T3 sequence: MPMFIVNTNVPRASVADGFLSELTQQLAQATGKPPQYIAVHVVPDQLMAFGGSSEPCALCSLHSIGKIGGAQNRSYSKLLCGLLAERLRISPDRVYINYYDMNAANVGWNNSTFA
As to the kind of experiment: EMSA; 10 mM Mg2+. Conditions: tags: GST tag removed; chain copies: 3; label: 5' biotin; stem loop with unpaired 5' and 3' bases. The procedure: as §2, §1

Data set [5] deals with T4, MIF E22A (Homo sapiens, UniProt P14174 P14174:1-115, E22A).
T4 sequence: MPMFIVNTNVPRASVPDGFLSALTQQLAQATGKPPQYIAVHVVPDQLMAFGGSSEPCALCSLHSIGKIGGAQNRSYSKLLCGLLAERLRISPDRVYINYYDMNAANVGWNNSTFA
As to the kind of experiment: EMSA; 10 mM Mg2+. The note with it: tags: GST tag removed; chain copies: 3 (inferred); label: 5' biotin; stem loop with unpaired 5' and 3' bases. Here is the method:
as §2, §1

Data set [6] deals with T5, MIF D17A (Homo sapiens, UniProt P14174 P14174:1-115, D17A).
T5 sequence: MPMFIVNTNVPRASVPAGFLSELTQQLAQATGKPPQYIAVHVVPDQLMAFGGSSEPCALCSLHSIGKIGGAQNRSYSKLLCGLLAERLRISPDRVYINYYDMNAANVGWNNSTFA
The data set can be described thus: EMSA; 10 mM Mg2+; text prints P17A. The note with it: tags: GST tag removed; chain copies: 3; label: 5' biotin; stem loop with unpaired 5' and 3' bases. Here is the method:
as §2, §1

Data set [7] addresses T6, MIF D17Q (Homo sapiens, UniProt P14174 P14174:1-115, D17Q).
T6 sequence: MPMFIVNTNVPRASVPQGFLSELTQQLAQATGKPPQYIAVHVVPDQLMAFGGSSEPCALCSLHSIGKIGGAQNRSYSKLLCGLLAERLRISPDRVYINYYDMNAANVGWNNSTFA
As to the kind of experiment: EMSA; 10 mM Mg2+; text prints P17Q. Conditions: tags: GST tag removed; chain copies: 3; label: 5' biotin; stem loop with unpaired 5' and 3' bases. The procedure:
as §2, §1

Data set [8] addresses T1, MIF. As to the kind of experiment: EMSA; 10 mM Mg2+; no obvious effect vs PS30. The note with it: tags: GST tag removed (pGex-6P-1); chain copies: 3 (inferred, trimer by FPLC); label: 5' biotin; stem loop, no 3' unpaired bases.
Method: 5′ biotin labeled ssPS³⁰ and its sequence-related substrates with different structures by removing unpaired bases at the 5′ end, 3′ end, both 5′ and 3′ ends or eliminating the stem loop were used in the EMSA (FIG. 3B, and FIG. 19).
EMSA assay was performed using LightShift Chemiluminescent EMSA kit (Thermo Scientific) following the manufactures instruction. Briefly, purified MIF protein (2 μM) was incubated with biotin-labeled DNA substrates (10 nM) in the binding buffer containing 10 mM MgCl₂ for 30 mM on ice. Then samples were separated on 6% retardation polyacrylamide followed by electrophoretic transfer to nylon membrane. Then, Biotin-labeled DNA is further detected by chemiluminescence using Chemiluminescent Nucleic Acid Detection Module (Thermo Scientific).

B1: 3F1 (ssDNA)
DNA: AAAAAAAAAACAAGTAGCTGGGATTACAGG
With B1, in data set [1], the binding result is “binds”.

B2: dsPS30 (dsDNA)
DNA 1: CTCAGCCTCCCAAGTAGCTGGGATTACAGG
DNA 2: CCTGTAATCCCAGCTACTTGGGAGGCTGAG
In the case of B2, the binding result in data set [2] is “no binding”.

B3: dsSL (dsDNA)
DNA 1: CCTGTAATCCCAAGTAGCTGGGATTACAGG
DNA 2: CCTGTAATCCCAGCTACTTGGGATTACAGG
Consider B3, for which the binding result in data set [2] was “no binding”.

B4: dsRF (dsDNA)
DNA 1: TCCCAAGTAGCTGGGATTACAGGAAAAAAA
DNA 2: TTTTTTTCCTGTAATCCCAGCTACTTGGGA
With B4, the binding result in data set [2] is given as “no binding”.

B5: dsLF (dsDNA)
DNA 1: AAAAAAACTCAGCCTCCCAAGTAGCTGGGA
DNA 2: TCCCAGCTACTTGGGAGGCTGAGTTTTTTT
For the molecule B5, the binding result in data set [2] is recorded as “no binding”.

B6: dsPA30 (dsDNA)
DNA 1: AAAAAAAAAAAAAAAAAAAAAAAAAAAAAA
DNA 2: TTTTTTTTTTTTTTTTTTTTTTTTTTTTTT
As for B6, the binding result in data set [2] is reported as “no binding”.

B7: PS30 (ssDNA)
DNA: CTCAGCCTCCCAAGTAGCTGGGATTACAGG
B7: the binding result in data set [3], in data set [4], in data set [5], in data set [6] and in data set [7] was “binds” in each case.

B8: LF (ssDNA)
DNA: AAAAAAACTCAGCCTCCCAAGTAGCTGGGA
Take B8: in data set [8], the binding result is recorded as “binds”.

B9: dsL3 (dsDNA)
DNA 1: ACCTAAATGCTAGAGCTCGCTGATCAGCCT
DNA 2: AGGCTGATCAGCGAGCTCTAGCATTTAGGT
For B9, the binding result in data set [2] was “no binding”.
